According to patent US20200164032A1 (WASHINGTON UNIVERSITY, published 2020):
Where two headings read alike, the source gives them in different places.

What was measured:
murine CCL2 [1] = target: T1, murine CCL2 (mouse, UniProt P10148 24-148)
murine CCL3 [2] = target: T2, murine CCL3 (mouse, UniProt P10855 24-92); experiment: SPR, R17 amine-coupled to CM5 chip
T2 construct: also called mCCL3
T2 sequence: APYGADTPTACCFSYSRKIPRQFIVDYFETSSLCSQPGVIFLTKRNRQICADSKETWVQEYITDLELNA

murine CCL11 = target: T3, murine CCL11 (mouse, UniProt P48298 24-97); experiment: SPR, R17 amine-coupled to CM5 chip
T3 sequence: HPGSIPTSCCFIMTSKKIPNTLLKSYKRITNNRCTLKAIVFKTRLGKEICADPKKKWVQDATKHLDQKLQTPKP

human CCL3 = target: T4, human CCL3 (human, UniProt P10147 23-92); experiment: SPR, R17 amine-coupled to CM5 chip
T4 construct: also called hCCL3
T4 sequence: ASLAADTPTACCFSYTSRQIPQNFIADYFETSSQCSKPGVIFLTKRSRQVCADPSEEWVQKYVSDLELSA

murine CCL5 [3] = target: T5, murine CCL5 (mouse, UniProt P30882 24-91); experiment: SPR, R17 amine-coupled to CM5 chip
T5 construct: also called mCCL5

[4] = target: T6, murine XCL1 (lymphotactin) (mouse, UniProt P47993 22-114); experiment: SPR, R17 amine-coupled to CM5 chip
T6 construct: also called mXCL1; lymphotactin (XCL1)
T6 sequence: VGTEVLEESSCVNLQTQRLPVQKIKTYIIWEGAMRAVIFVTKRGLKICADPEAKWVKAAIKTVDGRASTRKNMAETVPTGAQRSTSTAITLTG

murine CCL8 [5] = target: T7, murine CCL8 (mouse, UniProt Q9Z121 24-97); experiment: SPR, R17 on CM5 chip; KD,kin = kd/ka from the global fit
T7 construct: also called mCCL8
T7 sequence: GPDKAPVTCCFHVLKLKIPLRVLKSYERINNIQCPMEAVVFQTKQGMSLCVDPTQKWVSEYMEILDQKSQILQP

murine CCL2 [6] = target: T1, murine CCL2; experiment: as above
murine CCL20 [7] = target: T8, murine CCL20 (mouse, UniProt O89093 28-97); experiment: as above
T8 construct: also called mCCL20
T8 sequence: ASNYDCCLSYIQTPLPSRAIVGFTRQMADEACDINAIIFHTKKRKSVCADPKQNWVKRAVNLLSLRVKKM

human CCL2 = target: T9, human CCL2 (human, UniProt P13500 24-99); experiment: as above
T9 construct: also called hCCL2

CCL9 [8] = target: T10, CCL9 (UniProt P51670 22-122); experiment: as above
T10 sequence: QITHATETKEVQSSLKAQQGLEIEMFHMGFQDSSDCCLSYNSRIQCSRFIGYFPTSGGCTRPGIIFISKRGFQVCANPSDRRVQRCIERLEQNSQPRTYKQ

murine CCL12 [9] = target: T11, murine CCL12 (mouse, UniProt Q62401 23-104); experiment: as above
T11 construct: also called mCCL12
T11 sequence: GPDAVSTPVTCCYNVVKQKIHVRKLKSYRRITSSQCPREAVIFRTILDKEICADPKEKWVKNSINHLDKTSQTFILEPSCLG

murine CCL3 [10] = target: T2, murine CCL3; experiment: SPR, R17 on CM5 chip; KD,eq from saturation binding, Scatchard analysis
murine CCL8 [11] = target: T7, murine CCL8; experiment: as above
murine CCL2 [12] = target: T1, murine CCL2; experiment: as above
human CCL5 = target: T12, human CCL5 (human, UniProt P13501 24-91); experiment: as above
T12 construct: also called hCCL5
T12 sequence: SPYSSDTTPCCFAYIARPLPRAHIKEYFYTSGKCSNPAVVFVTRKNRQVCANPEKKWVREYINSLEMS

murine CCL20 [13] = target: T8, murine CCL20; experiment: as above
murine CCL24 = target: T13, murine CCL24 (mouse, UniProt Q9JKC0 27-119); experiment: as above
T13 construct: also called mCCL24
T13 sequence: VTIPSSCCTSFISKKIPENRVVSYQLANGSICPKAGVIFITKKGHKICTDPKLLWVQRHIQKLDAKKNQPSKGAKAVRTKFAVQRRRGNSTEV

murine CCL4 = target: T14, murine CCL4 (mouse, UniProt P14097 24-92); experiment: as above
T14 construct: also called mCCL4
T14 sequence: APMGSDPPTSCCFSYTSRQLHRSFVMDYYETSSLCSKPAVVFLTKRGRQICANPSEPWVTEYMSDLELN

murine CCL5 [14] = target: T5, murine CCL5; experiment: as above
CCL9 [15] = target: T10, CCL9; experiment: as above
murine CCL12 [16] = target: T11, murine CCL12; experiment: as above
[17] = target: T6, murine XCL1 (lymphotactin); experiment: as above

T1 sequence (P10148 24-148 limits assumed): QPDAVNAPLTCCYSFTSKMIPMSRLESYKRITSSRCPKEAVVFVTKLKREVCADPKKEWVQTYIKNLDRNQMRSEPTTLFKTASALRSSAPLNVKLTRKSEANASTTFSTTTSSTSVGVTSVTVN
T5 sequence (P30882 24-91 limits assumed): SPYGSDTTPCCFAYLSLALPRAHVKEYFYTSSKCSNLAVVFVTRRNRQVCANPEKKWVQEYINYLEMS
T9 sequence (P13500 24-99 limits assumed): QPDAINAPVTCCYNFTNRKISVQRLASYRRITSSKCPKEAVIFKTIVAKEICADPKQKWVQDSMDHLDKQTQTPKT

B1: R17 chemokine decoy receptor of Rodent herpesvirus Peru (RHVP), wild type, C-terminal 8-His fusion (receptor)
chain: GPVGEPVASEINEASKVSSRLLTQDILFRKDRQATISLPIKLPVEDIITQTCDKITYGPLKFLDLLEKETAVLPLSTDITCPACLGRAVLVGKWECPAHVAVNESDLTVFGPNKEEHVPQFVTVQQPSDGKMQRLFFAKFLGTEESLAVLRVPGPDGHLCIQEALIHFKELSGAGVCSLWKANDSREEGLEMKQVDCLETTVLENQTCIATTLSKKIYHRLYCGERLMTGGQVSTRVLLTALGFYKRQPYTFHRVPKGMVYVHLIDSGSEDYMEYSECEEVTPGRYEDKQISYTFYTDLFQTADGEPVLASVWGTSGLKDSAYESCAFVIPTKGRRKLVPRRIMSKCYPFRLTYHPSTMTVRLDVRVEKHHGATDQGFVFLKMESGTYSEGREYYLDRVLWGEDSSTNNVLQ
notes: not shown: C-terminal 8-His tag
For B1, the Kd (murine CCL2 [1]) was 12 nM, the “dissociation time of the complex” value (murine CCL3 [2]) was > 10 min and the binding result (murine CCL11) was “binds”. For the same binder, the “dissociation time of the complex” value (human CCL3) was > 10 min, the “dissociation time of the complex” value (murine CCL5 [3]) was > 10 min and the “dissociation time of the complex” value [4] was > 10 min. For the same binder, the Kd (murine CCL8 [5]) was 76 nM, the Kd (murine CCL2 [6]) was 6.7 nM and the Kd (murine CCL20 [7]) was 4.7 nM. The Kd (human CCL2) was 7.5 nM, the Kd (CCL9 [8]) was 4.5 nM and the Kd (murine CCL12 [9]) was 1.1 nM. For the same binder, the Kd (murine CCL3 [10]) was 0.4 nM, the Kd (murine CCL8 [11]) was 80 nM and the Kd (murine CCL2 [12]) was 10 nM. The Kd (human CCL5) was 0.9 nM, the Kd (murine CCL20 [13]) was 3.4 nM and the Kd (murine CCL24) was 2.2 nM. For the same binder, the Kd (murine CCL4) was 0.8 nM, the Kd (murine CCL5 [14]) was 0.1 nM and the Kd (CCL9 [15]) was 1.3 nM. The Kd (murine CCL12 [16]) was 1.3 nM and the Kd [17] was 4.2 nM.
